Laboratory results reported in patent publication WO2009055074A2 (dated 2009).

These binders were tested against T1, extracellular domain (ECD) of Her2 (ErbB2) (human, UniProt P04626 23-652) (assay: three rounds of selection and screening ELISA, soluble periplasmic scFv).
T1 construct: Target as named in the sentence on the thirty-one scFvs; also called ECD region of Her2

| Binder | binding result |
| --- | --- |
| S1R3A1_BMV_1G4 (scFv, V domains shown, scFv (one chain), soluble from the bacterial periplasm in the screening; also called Her2_S1R3A1_BMV_1G4) VH: QVQLVESGAEVKKPGASVKVSCKASGYTFTSYDINWVRQAPGQRLEWMGWINAGNGNTKYSQKFQGRVTITRDTSASTAYMELRSLRSDDTAVYYCARGRSYGHPYYFDYWGQGTLVTVSS VL: QSVLTQPASVSGSPGQSITISCTGTSSDVGGYNYVSWYQQHPGKAPKLMIYEGSKRPSGVSNRFSGSKSGNTASLTISGLQAEDEADYYCSSYTTRSTRVFGGGTKLTVLG | binds |
| S1R3B1_BMV_1G11 (scFv, V domains shown, scFv (one chain), soluble from the bacterial periplasm in the screening; also called Her2_S1R3B1_BMV_1G11) VH: QVQLVQSGGGLVQPGGSLRLSCAASGFTFSTYAMSWARQAPGKGLEWVSSISGDGGRILDADSAKGRFTISRDNSKNTLYLQMNGLRVEDTALYYCARADGNYWGRGTMVTVSS VL: QSVLTQPASVSGSPGQSITISCTGTSSDVGGYNYVSWYQQHPGKAPKLMIYEGSKRPSGVSNRFSGSKSGNTASLTISGLQAEDEADYYCSSYTTRSTRVFGGGTKLTVLG | binds |
| S1R3B1_BMV_1A1 (scFv, V domains shown, scFv (one chain), soluble from the bacterial periplasm in the screening; also called Her2_S1R3B1_BMV_1A1) VH: EVQLVQSGAEVKEPGASVKVSCKASGYDFSNYGFSWVRQAPGQGLEWMGWISSYNGYTNYAQRLQGRVTMTTDTSTSTAYMELRSLRSDDTAVYYCARDRGLGNWYFDLWGQGTLVTVSS VL: QSVLTQPASVSGSPGQSITISCTGTSSDVGGYNYVSWYQQHPGKAPKLMIYEGSKRPSGVSNRFSGSKSGNTASLTISGLQAEDEADYYCSSYTTRSTRVFGGGTKLTVLG | binds |
| S1R3C1_DP47_1H1 (scFv, V domains shown, scFv (one chain), soluble from the bacterial periplasm in the screening; also called Her2_S1R3C1_DP47_1H1) VH: not shown VL: QSVLTQPPSVSVAPGQTARITCGGDKIGHKSVHWYQQKPGQAPVLLVYDDRKRPSGIPERFSGSNSGNTATLTISRVEAGDEAAYHCQVWDRSSDPYVFGTGTKVTVLG | binds |
| S1R3C1_BMV_1H11 (scFv, V domains shown, scFv (one chain), soluble from the bacterial periplasm in the screening; also called Her2_S1R3C1_BMV_1H11) VH: GVQLVESGGGLVKPGGSLRLSCAASGFTFSSYNMNWVRQAPGKGLEWVSAISGSGGSTYYADSVTGRFTISRDNSKNTLYLQMNSLRAEDTAVYYCAKDTSGWYGDGMDVWGRGTLVTVSS VL: DIQMTQSPSTLSASIGDRVTITCRASEGIYHWLAWYQQKPGKAPKLLIYKASSLASGAPSRFSGSGSGTDFTLTISSLQPDDFATYYCQQYSNYPLTFGGGTKLEIKR | binds |
| S1R3A1_DP47_1A6 (scFv, V domains shown, scFv (one chain), soluble from the bacterial periplasm in the screening; also called Her2_S1R3A1_DP47_1A6) VH: not shown VL: HVILTQPPSASGTPGQRVTISCSGSSSNIGSNSVSWYQQLPGTAPKLLMYTNNQRPSGVPDRFSGSKSGTSASLAISGLQSEDEADYYCATWDASLNTWVFGGGTKVTVLG | binds |
| S1R3B1_BMV_1A10 (scFv, V domains shown, scFv (one chain), soluble from the bacterial periplasm in the screening; also called Her2_S1R3B1_BMV_1A10) VH: QMQLVQSGGGVVQPGRSLRLSCAASGFTFSSYGMHWVRQAPGKGLEWVAVISYDGSIKYYADSVKGRFTISRDNSKNTLYLQMNSLRAEDTGVYYCSKDRYSSGWYSSDAFDIWGRGTMVTVSS VL: SSELTQDPAVSVALGQTVRITCQGDSLRSYYASWYQQKPGQAPVLVIYGKNNRPSGIPDRFSGSSSGNTASLTITGAQAEDEADYYCHSRDSSGNHVLFGGGTKLTVLG | binds |
| S1R3B1_BMV_1H11 (scFv, V domains shown, scFv (one chain), soluble from the bacterial periplasm in the screening; also called Her2_S1R3B1_BMV_1H11) VH: EVQLVQSGGGLVKPGGSLRLSCAASGFTFSSYGMHWVRQAPGKGLEWVAGIFYDGGNKYYADSVKGRFTISRDNSKNTLYLQMNSLRAEDTAVYYCARDRGYYYMDVWGKGTTVTVSS VL: QSVLTQPPSVSGAPGQRVTISCTGRSSNIGAGHDVHWYQQLPGTAPKLLIYGDSNRPSGVPDRFSGSRSGTSASLAITGLQAEDEADYYCQSYDSSLRGSVFGGGTKVTVLG | binds |
| S1R3A1_CS_1B12 (scFv, V domains shown, scFv (one chain), soluble from the bacterial periplasm in the screening; also called Her2_S1R3A1_CS_1B12) VH: QVQLVQSGAEVKKPGASVKVSCQASGYTFSGHYMHLVRQAPGQGLEWMGWIHPTSGGTTYAQKFQGRVVMTRDTSISTAYMELSRLTSDDTAVYYCARMSQNYDAFDIWGQGTMVTVSS VL: QAVLTQPSSVSGAPGQRVTISCTGSSSNIGAGYDVNWYQQFPGTAPKIIVYGDRPSGAPDRFSGSKSGTSASLAITGLRAEDEADYYCQSWDSRLSSYVFGTGTKVTVLG | binds |

Each binder was assayed against T1, extracellular domain (ECD) of Her2 … (assay: three rounds of selection and screening ELISA, scFv on phage).

| Binder | binding result |
| --- | --- |
| S1R3B2_DP47_1E8 (scFv, V domains shown, also called Her2_S1R3B2_DP47_1E8) VH: not shown VL: QAVLTQPSAVSGAPGQRVTISCTGTSSNIGTNYLVHWYQQRPGTAPQLLVSGNNTRPSGVTDRFSVSKSATSASLAITGLQAEDEADYYCQTYDINLRVWVFGGGTKVTVLG | binds |
| S1R3B2_BMV_1H5 (scFv, V domains shown, also called Her2_S1R3B2_BMV_1H5) VH: EVQLVQSGGGLVRPGGSLRLSCAASGFSFSDYYMTWIRQIPGKGLEWVAVIWNDGSDRYYADSVKGRFTISRDNSKNTLFLQMSSLRDEDTALYYCVRGGPTASSGFDYWGRGTLVTVSS VL: SSELTQPASVSGSPGQSITISCTGTSSDVGGYNYVSWYLQHPGKAPKLMIYEGSKRPSGVSNRFSGSKSGNTASLTISGLQAEDEADYYCSSYTTRSTRVFGGGTKLTVLG | binds |
| S1R2A_CS_1D3 (scFv, V domains shown) VH: EVQLVQSGAEVKKPGASVKVSCKASGYSFTAFYIHWVRQAPGQGLEYLGWIDPNTGATKYAQRFQGRVIMTWDTSITTATMELSRLTSDDSAVYYCVRDLREWGYELSVEYWGRGTLVTVSS VL: not shown | binds |
| S1R3B2_DP47_1E10 (scFv, V domains shown, also called Her2_S1R3B2_DP47_1E10) VH: not shown VL: HVILTQPPSTSGTPGQTVTISCSGSSSNIGSHYVYWYQQLPGTAPKLLIYRNNQRPSGVPDRFSGSKSGTSASLAISGLRSEDETDYYCAAWDDSLSGRVFGTGTKLTVLG | binds |
| S1R3C1_CS_1D3 (scFv, V domains shown, also called Her2_S1R3C1_CS_1D3) VH: QVQLQESGPGLVKPSQTLSLTCGISGDSVSSNSAAWNWIRQSPTRGLEWLGRTYYRSSWYHNYAPSMNSRLTIIADTSKNQFSLQLNSVTPEDTAVYYCASGWAFDVWGRGTLVTVSS VL: QSVLTQPPSASGSPGQSVTISCTGTSSDVGAYDFVSWYQQHPGKAPKLMIYEVNKRPSGVPDRFSGSKSGNTASLTVSGLQAEDEADYYCSSYAGSKNLLFGGGTKLTVLG | binds |
| S1R3C1_CS_1A6 (scFv, V domains shown, also called Her2_S1R3C1_CS_1A6) VH: EVQLVQSGAEVKKPGESLKISCKGFGYNFRSAWIGWVRQMPGKGLEWMGVIYPGDSDVRYSPSFQGQVTISADKSISTAYLQWSSLKASDTAMYYCTRPVGQWVDSDYWGKGTLVTVSS VL: QSVLTQPPSASGTPGQRVTISCSGSSSNIGTNTVNWYQQLPGTAPKLLIYTSNQRPSGVPARFSASNSGTSASLAISGLRSEDEADYYCAAWDDKLSGAVFGGGTKLTVLG | binds |
| S1R2C_CS_1H12 (scFv, V domains shown) VH: EVQLVETGGGLVQPGGSLRLSCAASGFTFSSYGMNWVRQAPGKGLEWVSYISSSGNTIFYADSVKGRFTISRDSAKNSVSLQMNSLRDEDTAVYYCASYYSYYYGMDAWGQGTMVTV VL: not shown | binds |
| S1R3B2_BMV_1G2 (scFv, V domains shown, also called Her2_S1R3B2_BMV_1G2) VH: QVQLVQSGAEVKKPGSSVKVSCKASGYTFTSYGISWVRQAPGQGLEWMGWISAYNGNTNYAQKLQGRVTMTTDTSTSTAYMELRSLRSDDTAVYYCARVPGVSGSYPDYYYMDVWGKGTLVTVSS VL: DIQMTQSPSTLSASIGDRVTITCRASEGIYHWLAWYQQKPGKAPKLLIYKASSLASGAPSRFSGSGSGTDFTLTISSLQPDDFATYYCQQYSNYPLTFGGGTKLEIKR | binds |
